# In a protein production outcome set (Wang et al. 2014):
# Assay: label from the status in PepcDB records
row,Sequence,protein production
1,MLVSIILVNYNGADILPDCLNSIDKFISKDNCEILLVDNASQDNSYELVAQDFPDVKIVRLPKNYGFGAGNNAGAKIAKGKFLLLLNTDTILTTNILPHLIDLMRENPDVGIIGTKLVFPDETFQISFAYTIGIKGEYKSRKLHEYAEDKSKLNSLEQEFNTIKEVDIVVGAALFIRADLFHSVGGFDEKFFIYFEDADLCRRVQNQGYKILYTPQVSLIHIRGHSMKKNLEHHHHHH,failed
2,AKGKNLIIVQLESFQRNLTNIKIDGQSITPTLDSLQNETMYSNKFFQTVSKSNTADAEWSVYTSTFPSGYYTNTQTYGDRVIPSMPRLLGKNDYTTSTFHTNDASFYNRDEFYPAVGFDKFYDRKFFGDEDVIGFSPSDEVLYNKAFPILEKQYKNNQKFYAQLISVSSHMPFNIPEEKQEINLPSDLKDTELGNYFEAVHYADKQLGAFIQKLKDSGIWEDSVVVFYGDHHIIKTDQLPEEQKKYVNRSTELKADPADDYRIPFFLHYPGMKNPGEIKNVGGEIDIMPTVMNLLGINTGNQIMFGTDILNSTNNYVPERYTMPEGSYFTDSYMYQP,failed
3,MPTLGFRFRAYTDEQTLRALKAQLKSACKIYNTLRWADIYFYQRDGKGLTRTELRQLALDLRKQDDEYKQLYSQVVQQVADRYYEAKKRFFEGLAHFPKEKKPHKHYSLVYPQYGWKILQVREIRKGSKKKLITLKLSNLGTFKVIVHRDFPLDKVKRVVVKLTRSERIYITFVVDHEFPKLPNTGKVVAIDVGVEKLIVTSDGEYFPNLRPYEKALWKVKHLHRELSRKKFLSHNWFKAKVKLARAYEYLKNLRTDLYMKLGKWFAEHYDVVVMEGIHVKQLIGKSLRSLRRRLSDVAFSELRDLIKYQLEKYGKKLILVNPAYTSKTCAKCGYVKEDLSLSDRVFVCPNCGWIADRDYNASLNILRGSGSERPLVWSSALYQYSGMAELLEHHHHHH,not failed
4,MEMEERKLKILQAIINDYINNGEPVGSRTIAKKYNLGISSATIRNEMADLEEMGYIEQLHTSSGRKPSDKGYRLYVDRLMEIPSMSVEEEMLIKAKIIDSALYEIDKLVKQAMSLVSEMTKLTCVVKSLSARKSYIKSISLINIEPNMILCVFITDSGMIKNSIIRVKSNIENSSLERIANILNSKLKGLTIEQINLEVINNIKKDLREYGHIFDCIMPNLYDILREADSTEVYKEGTMNIFNYPEFKDIEKAKEFLSVIDDRRILDTLFNASGGVTVNIGNENSIKEARDFSVVSSVYKYNGRPLGTIGIIGPTRIPYSKVIKVIMEVVDQINNNLDKMNNS,failed
5,MNPSHGRGLGSAGGSSSGRNQGGGGETVVEMFPSGLRVLVVDDDPTCLMILERMLRTCLYEVTKCNRAEMALSLLRKNKHGFDIVISDVHMPDMD,failed
6,MLTFETLCQWHRAWLGNVYSWAGQSRTVDMSKPNIRFASPVQIPKLAEKFEARYLPRFAELPEMTDEELVAFLAEVHVEFILIHPFREGNGRISRLLLDVMAAKAGAEPLDYSLWDEHKDFYFKAIQAGRDGDYQHVERLIRDVLEAQQLEHHHHHH,failed
7,MIFENRLALSAMAGVNNAEFCRKQKASLVILGGFNADRRALEAAEKAVKRGRKEFLFGIDGIEGEIKKLGRRKFAVNVRSSSLEGYLNVAELVAEFEGIIEINAHCRQPEFVEIGCGEWLLFNHERLVEIVSKTSRIAPTFVKIRGGHKLDYEKIARKLFDAGCLAIHVDAMIPGGGCDFSLIERISRIGNVIGNNSFVDIESGERIIMAGAKMASAARAVLRDENFFEKMLRSPLLSQPVELSCGRFRLEHHHHHH,not failed
8,MSKHTVLFELGCEELPPKSLKTLRDALQAETVKGLKDAGLAFASIEAYAAPRRLALKIVDVDGAQADTQKRFDGPAVQAAYDAEGKPTKALEGFMRGQGITADQVSTFQAGKVEKVCYLKDVKGQTLDALLPQILQTALDNLPIAKRMRSAASRTEFVRPVKWVVLLKDDQIIEATIQDHQAGNVTYGHRFHAPEAVTLAHANDYLAALEKAYVVANFEKRQATIQEQVKKLADEVNATAIVPADLLDEVTSLVEWPVALRANFEERFLAVPQEALITTMQDNQKYFCLINSEGKLQPYFITVSNIESKDPTQIIEGNEKVVRPRLSDAEFFFLQDQKQPLASRKEKLANMVFQAQLGTLWDKSTRIAKLAVALSPITGANPADAEKAALLAKCDLTSELVGEFPELQGIAGTYYARIEGENTEVSEALGEQYLPKFAGDVLPKTKTGTTIALADRLDTLVGIFGIGQAPTGSKDPFALRRSAIGILRLIIENELDVTIEELVNLALQGYGDIVKDHDKTLADAVAFLEGRYRAKYEDQGVAVDVLQAVQALAPKS,failed
9,MSEHHHDHSHDHGHAGHQYHAVGSIQIAFFMNFGFTILEAIGGVMTNSTAILANAVHDFGDSIAVGQAWYFEKLSGRTGDKRYSYGYQRFSIFGALVSALMMLASSFLVLVEAVPRLLHPEHPNAKGMVAFALVGVAVNALAMLRLKGQAGMNARVIALHLLEDVLGWLSVLLVSVVLLFTSLPILDPLLAIVITLYILTGVVKNLRAMVPVFLQAVPSELSLDKVVADIQQTEHVTGVHHAHLWSLDGQRTVFTAHLEIGCDVNPAEYASIKEEIRKLVARHGIYHSTVELEYPGEVCRNESHKDG,failed
10,MFVGVVVIVAYGNLGQRLAYTVRSDEVVATAGFVLVGFVAGVAGQVLGTRIQAAVGEGAAVVDLPLVLFLAASGAFVAALLRSVLFERDDPLVMLTVGLLLWLFFELDPSVTARRVVIALAVTVLLGYLSYALDTASLPGMLTGVLLSFLTIVLGGFGWFAMLITFFGLGGLSTKYRYDEKLDRGIAEENEGARGSGNVLANSIVALFAVVAAAASPSHIAVDPLLFFYAFAGAVAAAMTDTFSSEFGGLYDNPRLITTLRPVEPGTDGGVTWQGVAAGAAGAGIIAGIAALTQDISTVGSGVILLCGLVGMTVDSLLGATVEGSVVGNQGVNMLATLAAALTGAGVVLTAGLL,failed
11,MRYLADHDDLTGLHNRRALLQHLDQRLAPGQPGPVAALFLDLDRLKAINDYLGHAAGDQFIHVFAQRIGDALVGESLIARLGGDEFVLIPASPMSADAAQPLAERLRDQLKDHVAIGGEVLTRTVSIGVASGTPGQHTLEHHHHHH,not failed
12,MYELVSPVNPLAVLRYIGHLLLVFSAVLLVPVLAAFVLGETDAAVIYGSSALVTAGTGFLLQKVLPDFELEIKEALILAALTFPLCSLVSAVPMAFSTGMPFLDAYFECVSGLTTTGLSLAPPSPTRLFFFTRSWLQWIGGIGIIVLVLGILIRPGTTAFRLYRVNFGESRIRPSVITTARTLGTVYLVLTLLSLLLLLFSGMPFYDAVCHTLSSISTGGFSTQAGSIGAYGGFLIPFLITVSCIMGAISFSLYPEVLKEPGTLIRDPQVRYLFGLSLLGTALFVLTLSGGEGGPELFHMMPDAVFQVVSALTGTGFSTIDLAPLSDASKGFLSAIMCIGGSIGSTTGGIKLFRLIVIVQLIKLVFYRFFLPREAITPLKVKSQVVDPDDFYRIMTYVLLYLAVLVFSAFIFMFYGINSADAIFETSSALATAGLSTGVTTPGMPSLLKLVLCADMLLGRVEIVPLFILLLPRTWFEINRNTGEKRSSKDTA,failed
13,MFDSVLQQSMQQWLETSLGQYVLEQEQRYFDRVVTDIFGYNATQIGFSGFDFLRNNRMPFKFAFGVRDGASVYAHPHFLPIKSSSIDLVLLPHTLEFNSNPHQILREAHRVLIPEGKVIISGFNPFSLWGMRQRMAKSKTDFPWCGRFIALPRMQDWLELHNFEIVAGQFGCYVPPCTREKWLSRLRFMEAAGDRWWPIAGGVYFLQAVKHECGLHIITPRWEDSPAKRGTVVVPQIERGHRMNNLEVSTVPWREKAGGGLIENRKYGVQYSVNNRDV,failed
14,GSHMLGGKGRPSGVGGYRILVTTSRRPSPRIRSFVKDLSATIPGAFRFTRGHYSMEELAREAIIRGADRIVVVGERRGNPGIIRVYAVEGPERPDNIVSFIVKGVSLSRERRWGLPSLRGGEVLVARPLDSGVAVEFADAFVIAFHARLKPPEAAGYVEAVIESLDARTVAVTFRYGGAPVGPMLRLGKPAEMVKRGRRV,not failed
15,MIFRLGDFRFPDDPARLYPDTPDRPWVLEIGFGDGRFWPHYARTFPEPPNYLGVEISGVSLLKAHRRLKDAGLTNAVLTKLPAEVLVAQVIPHGSLDAIIVNFPDPWPKAGHEDHRLLRVPFFQVAASRLKPGGAALLTTDHDEYFEFACAQAEASGVMRVERVGPPPAALETKYAQKWRDLGLGVNHARFVPTRHDPVPNGTFAPYSEEDPAVPHAVLTLPADFSPQHFDKLTVRGKTWTVVLLDLYATLRRGGWVALAHVVEGDLTQEVLVGITEREDGTHLVRLAKFGGPIITPGVKAAVGAVTEWLEGQGAVVKHRGY,failed
16,MRGLAACYSEHAIKVSDTYCSGPSNHSYISPTLPPSIPDTVTTTYRSNLPSSDKPVSVSLTWSDNLTVVISTPPKSYSVSLRKPKGSRKLTSSSGSLNAEILWDLSEAEYENNGPEPIRRFFVVVVVNSEITLGVGDVDHERDTSSSSSWRVSKTERFSGTCWLTTKAQFSDVGRKHEIQIQCGGGGGGGGEEGYLWKVKSPETMSVYVDKRKVFSVKKLKWNFRGNQTMFFDGMLIDMMWDLHDWFYKETLSSVSTSSSSKTASSSSSSSTSSSTPPCAVFMFRRRSGLDSRLWIDEDEQESEMKKNIGSRDEKHSFSLIICASKK,failed
17,MWTYSEYIIFFGIYSFIGWVLETIFASVNDKKIVNRGFLTGFFCPIYGFGAILTVQCSRMVGLSFKNPIISLISSVIFSIFLVTFLEYVTGFILEAIFNCKWWDYSNDAANIHGYICLKYSLLWGMLAFLLVQTIHPLISKMVFNISATTKEKVSIFLLVYFMIDTIKSVIDALNLRQAIMEYSNFSINKYRERILKYKRLIIAFPRLIILNRDIRRIVNDRFYKIKLEIKSKIQELF,failed
18,MGTVMDVLKGDNRFSMLVAAIQSAGLTETLNREGVYTVFAPTNEAFRALPPRERSRLLGDAKELANILKYHIGDEILVSGGIGALVRLKSLQGDKLEVSLKNNVVSVNKEPVAEPDIMATNGVVHVITNVLQP,not failed
19,MYVREVKDGKVVVAKARTSACGSCPAKNICLSDNEIKLEIDWCGEDLKPGDEVVVDIPEYDPLKVSTLVYFLPLVIFAVTVITGYLFRLKDWVTFVLALGSVFAYYSLFRFRRKDRKPPRILRKVS,failed
20,MIVRRTIDKDELKELPKTVFPGRIYVIQSEAETEKAVAYLQSRPVIGIDSETRPSFTKGQSHKVALLQISSEECCFLFRLNMTGLTQPLVDLLENPAVIKVGLSLKDDFMMLHKRAPFTQQSCIELQDYVRQFGIQDKSLQKIYAILFKEKISKSQRLSNWEADVLSDGQKQYAATDAWACLNIYNLLQELKQTGDWEVSPLTATVSPAEEVISNKISD,failed
21,MEKVHLYWNLRYNCWFLVSVEHLWYSQGKVPGVHGFVILPVFLTLLEQPFSTTKKDITQLRSPSSESLSSSNAVNYRAIRGSHSYFGIYGI,failed
22,MFLNYFALGVLIFVFLVIFYGIIAIHDIPYLIAKKRNHPHADAIHTAGWVSLFTLHVIWPFLWIWATLYQPERGWGMQSHVASQEKATDPEIAALSDRISRLEHQLAAEKKTDYSTFPEI,failed
23,MGVLTTFISQKALVGGYDNTIEPGVVILSGATITCNVSIGQGTFINKSTVISHDVRIGRYCEVSPGAKVLGRAIIGDRTEIGANAVILPDVIVGADCKIGAGAVVTRNIDSHTTVAGVPARSITKSSNNAFKLKSKIRNLLYHIRIADFRKLREYNHYVFGLEHHHHHH,failed
24,MKKQFLFLLLAVILLSSCATATLSEFPGVGRVKQYDFYSYDIPPAFDGFRIGFASDFHYESRFKRSELNSAVRALKSMHADVLLLGGDYRGKKGGNLDTLFTALSRVYTPYGTFAVMGNHDYGYCYSEVVEAMQKNHVRLMEHKSYKLMKDGQYIIVSGVRNPFDLKKNGDSPSQHFPADDFIILLTHTPDYAEDTDVSNANLVLAGHTHGGQVSLFKKYSPVKHSIYGNRFLTGWKENSKGTPIIITNGLGTSRVDVRLFTPSEVVLVVLHRVEKQKE,failed
